Experimental data taken from US20220040297A1 (Chugai, published 2022).
Changes are numbered by the printed parent chain.

B1: GLS3000 R29T (antibody, name in Kabat numbering, V domains shown)
VH: QVQLVESGGGVVQPGRSLRLSCAASGFTFSNAWMHWVRQAPGKGLEWVAQIKAKSNNYATYYAESVKGRFTISRDDSKNSLYLQMNSLKTEDTAVYYCRYVHYGAYYGVDAWGQGTTVTVSS
VL: DIVMTQSPLSLPVTPGEPASISCRSSQSLVHSNTNTYLHWYQQKPGQAPRLLIYKVSNRFSGVPDRFSGSGSGTDFTLKISRVEAEDVGVYYCGQGTQVPYTFGQGTKLEIK
notes: one-arm format as m2
B2: GLS3000 R77S (antibody, name in Kabat numbering, V domains shown)
VH: B1 VH
VL: B1 VL with T34R, R82S
notes: one-arm format as m2
B3: GLS3000 R29V (antibody, name in Kabat numbering, V domains shown)
VH: B1 VH
VL: B1 VL with T34V
notes: one-arm format as m2
B4: GLS3000 R45D (antibody, name in Kabat numbering, V domains shown)
VH: B1 VH
VL: B1 VL with T34R, R50D
notes: one-arm format as m2
B5: GLS3000 R54E (antibody, name in Kabat numbering, V domains shown)
VH: B1 VH
VL: B1 VL with T34R, R59E
notes: one-arm format as m2
B6: GLS3000 R54D (antibody, name in Kabat numbering, V domains shown)
VH: B1 VH
VL: B1 VL with T34R, R59D
notes: one-arm format as m2
B7: GLS3000 R45E (antibody, name in Kabat numbering, V domains shown)
VH: B1 VH
VL: B1 VL with T34R, R50E
notes: one-arm format as m2
B8: GLS3000 R54T (antibody, name in Kabat numbering, V domains shown)
VH: B1 VH
VL: B1 VL with T34R, R59T
notes: one-arm format as m2
B9: GLS3000 R54G (antibody, name in Kabat numbering, V domains shown)
VH: B1 VH
VL: B1 VL with T34R, R59G
notes: one-arm format as m2
B10: GLS3000 R45Q (antibody, name in Kabat numbering, V domains shown)
VH: B1 VH
VL: B1 VL with T34R, R50Q
notes: one-arm format as m2
B11: GLS3000 R54A (antibody, name in Kabat numbering, V domains shown)
VH: B1 VH
VL: B1 VL with T34R, R59A
notes: one-arm format as m2
B12: GLS3000 R54W (antibody, name in Kabat numbering, V domains shown)
VH: B1 VH
VL: B1 VL with T34R, R59W
notes: one-arm format as m2
B13: GLS3000 R54Q (antibody, name in Kabat numbering, V domains shown)
VH: B1 VH
VL: B1 VL with T34R, R59Q
notes: one-arm format as m2
B14: GLS3000 R54S (antibody, name in Kabat numbering, V domains shown)
VH: B1 VH
VL: B1 VL with T34R, R59S
notes: one-arm format as m2
B15: GLS3000 R54P (antibody, name in Kabat numbering, V domains shown)
VH: B1 VH
VL: B1 VL with T34R, R59P
notes: one-arm format as m2
B16: GLS3000 R29Y (antibody, name in Kabat numbering, V domains shown)
VH: B1 VH
VL: B1 VL with T34Y
notes: one-arm format as m2

These binders were tested against CD3ε homodimer protein (human, UniProt P07766 23-126, limits assumed) (assay: SPR, immobilized CD3ε homodimer;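 also: biacore T200 surface plasmon resonance at 25 °C, antibody variants flowed as analytes over amine-coupled CD3ε homodimer on a CM4 chip, variant binding amount divided by that of GLS3000 antibody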).
CD3ε homodimer protein, sequence (P07766 23-126 limits assumed): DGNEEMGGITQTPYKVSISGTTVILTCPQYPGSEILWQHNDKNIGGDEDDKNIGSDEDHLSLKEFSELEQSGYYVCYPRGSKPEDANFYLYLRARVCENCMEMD
Description: Each one-amino acid altered form constructed, expressed, and purified in the paragraph (6-2) was evaluated using Biacore T200 (GE Healthcare Japan Corp.). An appropriate amount of CD3ε homodimer protein was immobilized onto Sensor chip CM4 (GE Healthcare Japan Corp.) by the amine coupling method. Then, the antibody having an appropriate concentration was injected thereto as an analyte and allowed to interact with the CD3ε homodimer protein on the sensor chip. Then, the sensor chip was regenerated by the injection of 10 mmol/L glycine-HCl (pH 1.5). The assay was conducted at 25° C., and HBS-EP+ (GE Healthcare Japan Corp.) was used as a running buffer. […] Each parameter was calculated using Biacore T200 Evaluation Software (GE Healthcare Japan Corp.).
Specifically, when the amount of the GLS3000-containing antibody bound was defined as X and the amount of the L chain one-amino acid altered form bound was defined as Y, a value of Z (ratio of amounts bound)=Y/X was used.

Binder | ratio of amounts bound (vs GLS3000)
B1 | 0.63
B2 | 0.92
B3 | 0.34
B4 | 0.77
B5 | 0.58
B6 | 0.36
B7 | 0.75
B8 | 0.65
B9 | 0.67
B10 | 0.86
B11 | 0.69
B12 | 0.78
B13 | 0.68
B14 | 0.79
B15 | 0.84
B16 | 0.69
